Test results as given in the supplement of paper PMC6757056.
± gives the standard deviation of the averaged measurements.

B1: library; a variant is named by its letters at N, in order (parent)
chain: GCUGUCACCGGUGUAUUACCCUAGUGGUCGACCGGUCUGAUGAGUCUNNNNNNAGACGAAACAGC

Tests used:
hypoxanthine [1] = variants of: B1; assay: normalized RNA/DNA level with ligand (relative to sTRSVctl = 100) (log10 (% of sTRSVctl)); ligand: hypoxanthine (xanthine aptamer); higher = less ribozyme self-cleavage, higher mRNA level; settings: ligand concentration (+) RNA-Seq: 5 mM, HEK293T, reporter: mCherry (pCS4076), ligand present: yes
Procedure, shortened: (§1)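 Ribozyme switch library plasmids with mCherry reporters (eGFP in certain ligand experiments) went into HEK293T cells at 4 µg per 6-well well. Where ligand was used, it was applied 1 h before transfection, and total RNA was extracted with EDTA 72 h later for reverse transcription, amplification, barcoding and sequencing. RNA level is the RNA-to-DNA read ratio normalized to a spiked-in non-cleaving sequence or to the leading sequences, then scaled and log-transformed. Scaling was ×100 with log10, the leading set comprised 25 sequences, and the cutoff was ≥100 DNA reads.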

hypoxanthine [2] = variants of: B1; assay: normalized RNA/DNA level without ligand (relative to sTRSVctl = 100) (log10 (% of sTRSVctl)); ligand: hypoxanthine (xanthine aptamer); higher = less ribozyme self-cleavage, higher mRNA level; settings: HEK293T, reporter: mCherry (pCS4076), ligand present: no
Procedure, shortened: as §1

| Variant | normalized RNA/DNA level with ligand (log10) (hypoxanthine [1]) | normalized RNA/DNA level without ligand (log10) (hypoxanthine [2]) |
| --- | --- | --- |
| UGCUAG | 1.94 ± 0.025 | 1.658 ± 0.0069 |
| GGGAUA | 1.95 ± 0.053 | 1.69 ± 0.0074 |
| ACCGUC | 1.982 ± 0.0058 | 2 ± 0.026 |
| UCGUAA | 1.87 ± 0.04 | 1.53 ± 0.066 |
| CUGACU | 1.99 ± 0.038 | 1.9 ± 0.072 |
| GGCCCG | 1.974 ± 0.011 | 1.88 ± 0.03 |
| GUGCUU | 1.96 ± 0.027 | 1.89 ± 0.019 |
| UUUACU | 1.94 ± 0.024 | 1.876 ± 0.0032 |
| UAGUGC | 1.95 ± 0.038 | 1.712 ± 0.014 |
| AUGAUU | 1.92 ± 0.036 | 1.709 ± 0.003 |
| UGUCUU | 2.01 ± 0.033 | 1.907 ± 0.0099 |
| UGUGUU | 1.95 ± 0.071 | 1.887 ± 0.0068 |
| UGUGUC | 1.98 ± 0.041 | 1.958 ± 0.0027 |
| UCCUUC | 1.93 ± 0.046 | 1.89 ± 0.062 |
| UCCUUU | 2.01 ± 0.04 | 1.94 ± 0.032 |
| UCCUUG | 1.91 ± 0.034 | 1.64 ± 0.022 |
| GGAAUC | 1.9 ± 0.035 | 1.81 ± 0.057 |
| UCCCGC | 1.924 ± 0.018 | 1.51 ± 0.017 |
| CAGAUU | 1.96 ± 0.024 | 1.768 ± 0.015 |
| AUGGCA | 1.92 ± 0.035 | 1.787 ± 0.017 |

| Variant | normalized RNA/DNA level with ligand (log10) (hypoxanthine [1]) | normalized RNA/DNA level without ligand (log10) (hypoxanthine [2]) |
| --- | --- | --- |
| UCUGAC | 1.99 ± 0.031 | 1.8115 ± 0.00067 |
| CACGAG | 1.9 ± 0.035 | 1.6 ± 0.026 |
| UGGAAA | 1.91 ± 0.02 | 1.7 ± 0.039 |
| UUUGAC | 1.927 ± 0.0075 | 1.84 ± 0.037 |
| GCACUC | 1.945 ± 0.0064 | 1.873 ± 0.0092 |
| UAUUGA | 1.901 ± 0.016 | 1.74 ± 0.021 |
| CGGGCC | 1.944 ± 0.0098 | 1.99 ± 0.026 |
| UUCUAU | 1.95 ± 0.047 | 1.867 ± 0.016 |
| GGGCAC | 1.9407 ± 0.0014 | 1.879 ± 0.012 |
| AAGUGC | 1.879 ± 0.018 | 1.53 ± 0.036 |
| UGGGGU | 1.915 ± 0.017 | 1.64 ± 0.034 |
| AUUGCU | 1.92 ± 0.048 | 1.88 ± 0.048 |
| CCGUGC | 1.9 ± 0.057 | 1.54 ± 0.08 |
| AAAAUA | 1.909 ± 0.018 | 1.777 ± 0.015 |
| UUUGCG | 1.91 ± 0.11 | 1.778 ± 0.0053 |
| UUCUGU | 1.947 ± 0.0095 | 1.883 ± 0.018 |
| GACUAG | 1.837 ± 0.011 | 1.47 ± 0.045 |
| GUUAAG | 1.853 ± 0.0019 | 1.48 ± 0.027 |
| CCACAC | 1.93 ± 0.067 | 1.777 ± 0.015 |
| CCGGGG | 1.83 ± 0.057 | 1.34 ± 0.084 |

| Variant | normalized RNA/DNA level with ligand (log10) (hypoxanthine [1]) | normalized RNA/DNA level without ligand (log10) (hypoxanthine [2]) |
| --- | --- | --- |
| UUGGGC | 2.05 ± 0.032 | 1.914 ± 0.012 |
| AAUCGC | 1.92 ± 0.03 | 1.82 ± 0.053 |
| CCCUCC | 1.95 ± 0.065 | 2 ± 0.08 |
| ACAUGC | 1.914 ± 0.015 | 1.77 ± 0.024 |
| GAAUUU | 1.964 ± 0.015 | 1.89 ± 0.022 |
| UUACUU | 1.93 ± 0.025 | 1.93 ± 0.043 |
| UUACUC | 1.995 ± 0.0094 | 2.02 ± 0.038 |
| CGCACA | 1.92 ± 0.024 | 1.738 ± 0.016 |
| GCCGAC | 1.891 ± 0.0051 | 1.55 ± 0.032 |
| GCCUAU | 1.944 ± 0.013 | 1.852 ± 0.011 |
| CUUCGC | 1.954 ± 0.0084 | 1.88 ± 0.034 |
| UAAAAG | 1.87 ± 0.025 | 1.627 ± 0.011 |
| CUCAUU | 1.99 ± 0.067 | 2.01 ± 0.08 |
| CGCAUU | 1.942 ± 0.0093 | 1.82 ± 0.036 |
| CGCAUG | 1.93 ± 0.059 | 1.81 ± 0.057 |
| AUCAAU | 1.89 ± 0.038 | 1.78 ± 0.058 |
| CAUCUC | 1.957 ± 0.0025 | 2.01 ± 0.021 |
| UCCCUU | 1.92 ± 0.051 | 1.781 ± 0.017 |
